The target in this assay is T1, human C5a receptor (C5aR) on purified human neutrophils (human, UniProt P21730 1-350).
T1 construct: whole, on cells
T1 sequence (looked up): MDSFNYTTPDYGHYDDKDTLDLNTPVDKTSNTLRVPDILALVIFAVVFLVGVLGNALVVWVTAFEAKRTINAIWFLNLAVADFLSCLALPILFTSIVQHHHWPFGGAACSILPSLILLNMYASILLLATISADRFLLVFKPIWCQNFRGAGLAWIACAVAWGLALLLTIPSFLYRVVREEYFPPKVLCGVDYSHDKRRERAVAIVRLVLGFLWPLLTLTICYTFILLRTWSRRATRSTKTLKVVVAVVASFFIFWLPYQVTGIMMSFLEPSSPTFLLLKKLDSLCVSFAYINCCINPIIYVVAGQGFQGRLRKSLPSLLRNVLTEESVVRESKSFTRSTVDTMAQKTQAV
Kind of assay: displacement of 125I-C5a from purified human neutrophils by unlabeled recombinant human C5a. The procedure:
MAb137-26 was serially diluted in 1.5 ml Eppendorf centrifuged tubes with a binding buffer (1% BSA in RPMI1640 medium) to give final concentrations ranging from 640 nM to 0.04 nM. […] Purified recombinant human C5a (Sigma, St. Louis, Mo. was used as positive control, whereas an isotype-matched irrelevant monoclonal antibody was used as negative control. For the maximum binding of ¹²⁵I-C5a, 36 μl of the binding buffer without the antibodies or C5a was used instead. Fifty microliters of the neutrophil suspension was added to each tube for incubation on ice. At the end of the 40-minute incubation period, the mixture from each tube was transferred to the top of 800 μl of a separation buffer (6% BSA in PBS) in another Eppendorf tube. The tubes were than centrifuged at 2000×g for 3 minutes at room temperature. After the supernatant was aspirated, the cell pellet was re-suspended in 0.5 ml of de-ionized water to lyse the cells. The cell lysate was then mixed with 3 ml of Ultima Gold scintillation fluid (Packard Instrument, Meriden, Conn.) for radioactive counting. The percent inhibition of ¹²⁵I-C5a binding is defined as: [Cpmₘₐₓ−Cpmbkg]−[Cpmca−Cpmbkg]/[Cpmₘₐₓ−Cpmbkg]×100 where: Cpmₘₐₓ=maximum count per minute without competing agents; Cpmbkg=background cpm without addition of ¹²⁵I-C5a; and Cpmca=cpm with competing agents.
Background: Loss of bound radioactivity is the signal in a displacement assay; it reports binding, not function.

B1: human C5a (ligand, UniProt P01031 678-751, looked up)
chain: TLQKKIEEIAAKYKHSVVKKCCYDGACVNNDETCEQRAARISLGPRCIKAFTECCVVASQLRANISHKDMQLGR
notes: domain: C5a; Bought recombinant protein; also called recombinant C5a (Sigma); purified recombinant human C5a
The term IC50 denotes the point on the concentration scale where inhibition reaches its midpoint. Take B1: the IC50 stood at 30 nM.

These data come from patent publication US20080118508A1 (published 2008).
